# Source: patent publication US9512459B2 (priority 2011, dated 2016)
# Substrate: OC[C@H]1OC(O)[C@H](O)[C@@H](O)[C@@H]1O
# Assay: cells, lysate or membranes named
# Type: biochemical, Aspergillus niger
# Conditions: other: 60 ml culture, crude enzyme, glucose 1-40 mM, pH 6.5, DCIP/PMS, 20.0 °C
# Protocol: The transformant BL21 (DE3) expressing each mutated enzyme was precultured. The transformant was inoculated in an amount of 1% with respect to 60 ml of a medium A using a 300-ml baffled flask and shake-cultured under conditions involving 20° C., 28 hours, and 125 rpm. After collection of 50 ml of the medium, the bacterial cells were suspended by the addition of BugBuster (registered trademark) protein extraction reagent (Novagen/Merck KGaA) at a ratio of 5 ml per g of wet cells and incubated at room temperature for 15 minutes with gentle shaking. Insoluble fractions were removed by centrifugation (15 Krpm, 4° C., 20 minutes). Then, the obtained supernatant was dialyzed overnight at 4° C. against a 20 mM potassium phosphate buffer solution (pH 6.5). After the completion of the dialysis, the dialysate was centrifuged, and the supernatant was used as a crude enzyme preparation. Insoluble fractions were suspended in a 20 mM potassium phosphate buffer solution (pH 6.5) at a ratio of 1 ml per 2 ml of the suspension containing the insoluble fractions.
# The obtained Michaelis-Menten constant (Km value) and apparent maximum activity (Vmax) were determined from a saturation curve determined therefrom.
Protein,Km,Vmax
"Aspergillus niger glucose dehydrogenase (FAD-GDH) Ang-n2 variant N368K, SEQ ID NO: 2 (Aspergillus niger CBS 513.88; N368K) (protein, pET30c, E. coli BL21(DE3), crude extract) YDFVIVGGGTSGLVVANRLSELSDVTVAVIEAGESALNNFNVSNVMGYSTAFGTEVDWAYQTENQTYAGGLQQTIRAGKALGGTSTINGMSYTRAEDVQIDNWEVLGNDGWNWKNLFQYYKKSEGFQVPTKDQIAHGASYNASYHGLNGPLKVGWPNSMTNSSVFPVLEQTFEKLGVQYNPDSEGGKMVGFTVHPDTLDREMNVREDAARAYYWPYEARSNLKIISNTRANKVIWANTTQGEAVAVGIEVTNAYGTETIYADKEVILSAGALRSPAILELSGIGNPDVLNKHNIPVKVNITTVGENLQDQTNNALSWEGVDTLTGLATFSVLPSVNQLYGDKVTALASYVKSQLASYAKTVASASNGAVKEANLVEAFERQYDLIFNSQVPYTEVVFAPSGNSFAVEYWPLLPFSRGSVHIQSANASDYPAINPNYFMFDQDAEAQVTVAQYIRKALGTAPLNSLVGEEVSPGLDVLPASASSATWTKWVKENYRTNYHPVGTTSMLPREKGGVVSPELKVYGTKNVRVVDASVLPFQLCGHLTSTLYAVAERASDLIKESY",4.6 mM,0.7 µmol/min/mg
"Aspergillus niger glucose dehydrogenase (FAD-GDH) Ang-n2 variant E195K/Q196E/N368K/T522S, SEQ ID NO: 2 (Aspergillus niger CBS 513.88; E195K/N368K/Q196E/T522S) (protein, pET30c, E. coli BL21(DE3), crude extract) YDFVIVGGGTSGLVVANRLSELSDVTVAVIEAGESALNNFNVSNVMGYSTAFGTEVDWAYQTENQTYAGGLQQTIRAGKALGGTSTINGMSYTRAEDVQIDNWEVLGNDGWNWKNLFQYYKKSEGFQVPTKDQIAHGASYNASYHGLNGPLKVGWPNSMTNSSVFPVLKETFEKLGVQYNPDSEGGKMVGFTVHPDTLDREMNVREDAARAYYWPYEARSNLKIISNTRANKVIWANTTQGEAVAVGIEVTNAYGTETIYADKEVILSAGALRSPAILELSGIGNPDVLNKHNIPVKVNITTVGENLQDQTNNALSWEGVDTLTGLATFSVLPSVNQLYGDKVTALASYVKSQLASYAKTVASASNGAVKEANLVEAFERQYDLIFNSQVPYTEVVFAPSGNSFAVEYWPLLPFSRGSVHIQSANASDYPAINPNYFMFDQDAEAQVTVAQYIRKALGTAPLNSLVGEEVSPGLDVLPASASSATWTKWVKENYRSNYHPVGTTSMLPREKGGVVSPELKVYGTKNVRVVDASVLPFQLCGHLTSTLYAVAERASDLIKESY",3.2 mM,6.1 µmol/min/mg
"Aspergillus niger glucose dehydrogenase (FAD-GDH) Ang-n2 variant E195K/Q196D, SEQ ID NO: 2 (Aspergillus niger CBS 513.88; E195K/Q196D) (protein, pET30c, E. coli BL21(DE3), crude extract) YDFVIVGGGTSGLVVANRLSELSDVTVAVIEAGESALNNFNVSNVMGYSTAFGTEVDWAYQTENQTYAGGLQQTIRAGKALGGTSTINGMSYTRAEDVQIDNWEVLGNDGWNWKNLFQYYKKSEGFQVPTKDQIAHGASYNASYHGLNGPLKVGWPNSMTNSSVFPVLKDTFEKLGVQYNPDSEGGKMVGFTVHPDTLDREMNVREDAARAYYWPYEARSNLKIISNTRANKVIWANTTQGEAVAVGIEVTNAYGTETIYADKEVILSAGALRSPAILELSGIGNPDVLNKHNIPVKVNITTVGENLQDQTNNALSWEGVDTLTGLATFSVLPSVNQLYGDNVTALASYVKSQLASYAKTVASASNGAVKEANLVEAFERQYDLIFNSQVPYTEVVFAPSGNSFAVEYWPLLPFSRGSVHIQSANASDYPAINPNYFMFDQDAEAQVTVAQYIRKALGTAPLNSLVGEEVSPGLDVLPASASSATWTKWVKENYRTNYHPVGTTSMLPREKGGVVSPELKVYGTKNVRVVDASVLPFQLCGHLTSTLYAVAERASDLIKESY",2.9 mM,5.1 µmol/min/mg
"Aspergillus niger glucose dehydrogenase (FAD-GDH) Ang-n2 variant E195K/Q196R, SEQ ID NO: 2 (Aspergillus niger CBS 513.88; E195K/Q196R) (protein, pET30c, E. coli BL21(DE3), crude extract) YDFVIVGGGTSGLVVANRLSELSDVTVAVIEAGESALNNFNVSNVMGYSTAFGTEVDWAYQTENQTYAGGLQQTIRAGKALGGTSTINGMSYTRAEDVQIDNWEVLGNDGWNWKNLFQYYKKSEGFQVPTKDQIAHGASYNASYHGLNGPLKVGWPNSMTNSSVFPVLKRTFEKLGVQYNPDSEGGKMVGFTVHPDTLDREMNVREDAARAYYWPYEARSNLKIISNTRANKVIWANTTQGEAVAVGIEVTNAYGTETIYADKEVILSAGALRSPAILELSGIGNPDVLNKHNIPVKVNITTVGENLQDQTNNALSWEGVDTLTGLATFSVLPSVNQLYGDNVTALASYVKSQLASYAKTVASASNGAVKEANLVEAFERQYDLIFNSQVPYTEVVFAPSGNSFAVEYWPLLPFSRGSVHIQSANASDYPAINPNYFMFDQDAEAQVTVAQYIRKALGTAPLNSLVGEEVSPGLDVLPASASSATWTKWVKENYRTNYHPVGTTSMLPREKGGVVSPELKVYGTKNVRVVDASVLPFQLCGHLTSTLYAVAERASDLIKESY",2.5 mM,4.3 µmol/min/mg
"Aspergillus niger glucose dehydrogenase (FAD-GDH) Ang-n2 variant N368K/T522S, SEQ ID NO: 2 (Aspergillus niger CBS 513.88; N368K/T522S) (protein, pET30c, E. coli BL21(DE3), crude extract) YDFVIVGGGTSGLVVANRLSELSDVTVAVIEAGESALNNFNVSNVMGYSTAFGTEVDWAYQTENQTYAGGLQQTIRAGKALGGTSTINGMSYTRAEDVQIDNWEVLGNDGWNWKNLFQYYKKSEGFQVPTKDQIAHGASYNASYHGLNGPLKVGWPNSMTNSSVFPVLEQTFEKLGVQYNPDSEGGKMVGFTVHPDTLDREMNVREDAARAYYWPYEARSNLKIISNTRANKVIWANTTQGEAVAVGIEVTNAYGTETIYADKEVILSAGALRSPAILELSGIGNPDVLNKHNIPVKVNITTVGENLQDQTNNALSWEGVDTLTGLATFSVLPSVNQLYGDKVTALASYVKSQLASYAKTVASASNGAVKEANLVEAFERQYDLIFNSQVPYTEVVFAPSGNSFAVEYWPLLPFSRGSVHIQSANASDYPAINPNYFMFDQDAEAQVTVAQYIRKALGTAPLNSLVGEEVSPGLDVLPASASSATWTKWVKENYRSNYHPVGTTSMLPREKGGVVSPELKVYGTKNVRVVDASVLPFQLCGHLTSTLYAVAERASDLIKESY",3.4 mM,5.3 µmol/min/mg
